Results on one substance are retold here after publication PMC5916551.

The assay concerns the target Transforming growth factor β1 (TGFβ1) (human) (UniProt P01137). As to the kind of experiment: SPR.
UniProt P01137, sequence (P01137 279-390): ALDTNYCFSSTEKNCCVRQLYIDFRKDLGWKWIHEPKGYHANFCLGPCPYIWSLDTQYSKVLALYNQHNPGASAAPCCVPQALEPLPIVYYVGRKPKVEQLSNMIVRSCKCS

Metelimumab (CAT192 IgG4) (antibody) returned a Kd of 0.139 µM.
